Data reported in the nanobody polyreactivity screen of Harvey et al. (2022).

Experiment: yeast display, Sf9 membrane polyspecificity reagent, FACS + sequencing; frameworks hold sequencing errors
Outline: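 In a synthetic yeast display library (Saccharomyces cerevisiae BJ5465), nanobody expression was induced with galactose for 36–48 hours. FACS gates were set low and high (top ~1%) using anti-HA fluorescence for expression and streptavidin fluorescence for binding of the Sf9 membrane reagent. Each polyreactivity label is drawn from the gate of origin.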

Row | Sequence | polyreactivity (PSR sort gate)
1 | QVQLVESGGGLVQAGGSLRLSCAASGRIFKSYAMGWYRQAPGKERELVATISISGGSTYYADSVKGRFTISRDNEKNTVYLQMNSLKPEDNAVYYCNVDFPITEYYYWGNGTQVTVSS | low polyreactivity
2 | QVQLVESGGGLVQAGGSLRLSCAASGYIFKYYAMGWYRQAPGKERELVTAIRSNDDSTYYADSVKGRFTISRDTAKNTVYLQMNSLKPEDTAVYYCAAATYGTRLRRYYYWGQGTQVTVSS | high polyreactivity
3 | QVQLVESGGGLVQAGGSLRLSCAASGRTFGNYAMGWYRQAPGKERELVAAITSAGRTYYADSVKGRFTISRDNAKNTVYLQMNSLKPEDTAVYYCNANRVSPYYWGQGTQVTVSS | low polyreactivity
4 | QVQLVESGGGLVQAGGSLRLSCAASGSTFRYYTMGWYRQAPGKEREFVASISRSGGSTYYADSVKGRFTISRDNAKNTVYLQMNSLKPEDTAVYYCNAVKGSYSRSQGNEYWGQGTQVTVSS | high polyreactivity
5 | QVQLVESGGGLVQAGGSLRLSCAASGFIFSRNAMGWYRQAPGKERELVAAISSTGGITYYADSVKGRFSISRDNAKNTVYLQMNSLKPEDTAVYYCAACFYGYARHTWYNYWGQGTQVTVSS | high polyreactivity
6 | QVQLVESGGGLVHAGGSLRLSCAASGFTFGPYAMGWYRQAPRKERELVAAITGSGGITYYADSVKGRFTISRDNAKNTVYLQKNSLKPEDTAVYYCAAEYPYVYGTYSDSYTEYDYWGQGTQVTVSS | low polyreactivity
7 | QVQLVESGGGLVQAGGSLRLSCAASGIIFTVYVMGWYRQAPGKERELVAGITFSTSSTYYADSVKGRFTISRDNAKNTVYLQMNSLKPEDTAVYYCNKDALQTAFDYWGQGTQVTVSS | low polyreactivity
8 | QVQLVESGGGLVQAGGSLRLSCAASGSSLTRNDMGWHRLAPGKERELVAAISFSGSDTYYADSVKGRFTISRDNAKNTVYLQMNSLKPEDTAVYYCAAEYGGYSKYLFIGRYYWGQGTQVTVSS | low polyreactivity
9 | QVQLVESGGGLVQAGGSLRLSCAASGRTFIFYAMGWYRQAPGKERELVAAITYSGTSTYYADSVKGRFTISRDNAKNTVYLQMNSLKPEDTAVYYCASRPTPYRDDADEYWGQGTQVTVSS | low polyreactivity
10 | QVQLVESGGGLVQAGGSLRLSCAASGRTFNQYAMGWYRQAPGKERELVAAISRRTGRTYYADSVKGRFTISRDNAKNTVYLQMNSLKQEDTAVYYCAAGFTYLNYTPWYRFNYWGQGTQVTVSS | high polyreactivity
11 | QVQLVESGGGLVQAGGSLRLSCAASGITFYDYAMGWYRQAPGKERELVAAISDSGGITYYADSVKGRFTISRDNAKNTVYLQMNSLKPEDTAVYFCAAEDQLNRDYWGQGTQVTVSS | high polyreactivity
12 | QVQLVESGGGLVQAGGSLRLSCAASGSIRSYAMGWYRQAPGKERELVAAITRSGGSTYYADSVKGRFTISRDNAKNTVYLQMNSLKPEDTADYYCGARSTYSYPLFGSWGQGTQVTVSS | high polyreactivity
13 | QVQLVESGGGLVQAGGSLRLSCAASGSIDNIYAMGWYRQAPGKERELVATITGIADSTYYADSVKGRFTISRDNAKNTVFLQMNSLKPEDTAVYYCAADKYVAEYDYWGQGTQVTVSS | low polyreactivity
14 | QVQLVESGGGLVQAGGSLRLSCAASGSTFTPYVMGWYRQAPGKEREMVASITGGGGSTYADSVKGRFTISRDNAKNTVYVQMNSLKPEDTAVYYCAAELYRSNVYHYDYWGQGSQVTVSS | high polyreactivity
15 | QVQLVESGGGLVQAGGSLRLSCAASGRTFNAYAMGWYRLAPWKERELVAAISSGGSTYYADSVKGRFTISRDNAKNTVYLQMNSLKQEDTAVYYSNKVYGWRQFDYWGNGTQVTVSS | high polyreactivity
16 | QVQLVESGGGLVQAGGSLRLSCAAYAMGWYRQAPGKERELVAAMSSSGGSTYYADSVKGRFTISRDNAKTTVYLQMTSLKPEDTAVYYCARDPDTYFFPPTGYYTSGFDSWGQGTQVTVSS | low polyreactivity
17 | QFQLVESGGGLVQAGGSLRLSCAASGRIFARNTMGWYRQAAGKERELVAAITYSGGNTYYADSVKGRFTISRDNAKNTVYLQMNSLKPEDTAVYDCNKASFGRLRKKIMDYWGQGTQVTVSS | high polyreactivity
18 | QVQLVESGGGLVQAGGSLRLSCAASGFTFILYAMGWYRQAPGKERELVAAITTSGGRTYYADSVKGRFTISRDTAKNTVYLQMNSLKPEDTAVYYCNARTTPKERDYWGQGTQVTVSS | high polyreactivity
19 | QVQLVESGGGLVQAGGSLRLSCAASGSIFGYNAMGWYRQAPGKEREFVAAISWSGGRTYYADSVKGRFTISRDNAKNTVYLQMNSLKPEDTAVYYCAAPSRPAPRFDYWGQGTQVTVSS | low polyreactivity
20 | QVQLVESGGGLVQAGGSLRLSCAASGSIFPQNAMAWYRQAPGKERELVASISSGGRTNYADSVKGRFTISRDNAKNTVYLQMNSLKPEDTAVYYCNARYRGYYGPKTHGVTYYYWGQGTQVTVSS | low polyreactivity
21 | QVQLQESGCGLVQAGGSLRLSCAASGSISAVGAMGWYRQAPGKEREFAASVNWGTNTNYADSVKGRFTISRDNAKNTLYLLMNSLTPEDTAVYYCAVLPDWETRHDYWGHGTQVTVSS | low polyreactivity
22 | QVQLVESGGGLVQAGASLRLSCAASGSTYVRNAMGWYRQAPGKERELVAAITSGGNTYADSVKGRFTISRDNAKNTVYLQMNSLKPEDTAVYYSAAANEFGDVWAQFDYWGQGTQVTVSS | low polyreactivity

Row | Sequence | polyreactivity (PSR sort gate)
23 | QVQLVESGGGLLQAGGSLRLSCAASGITFQGYAMGWYRQAPGKERELVAAITYRGGSTYYADSVKGRFTISRDNAKNTVYLQMNSLKPEDTAVYYCARDHSRHLHPSWLDYWGQGTQVTVSS | high polyreactivity
24 | QVQLVESGGGLVQAGGSLRLSCAASGLTFRWYAMGWYRQEPGKERELVAAISSSGNTNYADSVKGRFTISRDNAKNTVYLQMNSLKPGDSAVYYCAASYYSYPPGLSQTRLTYYYWGQGTQLTVSS | high polyreactivity
25 | QVQLVESCGGLVQAGGSLRLSCAASGITFGSYAMGWYRQAPGKERELVAAITTGTSTNYADSVKGRFTISRDNAKNTVYLQMNSLKPEDTAVYYCNAEKYNFIYAYEYWGQGTQVTVSS | low polyreactivity
26 | QVQRVESGGGLVQAGGSLRLSCAASGRIFGYNAMGWSRPAPGKERELVASISRDGDRTYYADSVKGRVTISRDNAKNTVYLQMNSLKPEDTAVDYCATRQYRYGYLYDYWAQGTQVTVSS | high polyreactivity
27 | QVQLVESRGGLVQAGGSLRLSCAASGSIFDSYAMGWYRQAPGKERELVADISSGGSTYYADSVKGRFTISRDNAKNTVYLQMNSLKPEDTAVYYCAAQYVYYFYGDEAFTDDYWGQGTQVTVSS | low polyreactivity
28 | QVQLVESGGGLVQAGGILSLSCAASGFIFLYNMGWYRQAPGKEWQLVADISTGVSTNYADSVKGRFTISRDNAKNSVYLQMNSLKPEDTAVYYCAAVYYNGYQYEPWYDYWGQGTQVTVSS | low polyreactivity
29 | QVQLVESGGVLVQAGGSLRLSCAASGRIFHYYAMGWYRQAPGKETELVAANSSRRGSTYYADSVKGRFTISRDNAKNNFYLQMNILKAYDTAVYYCNARGWGYWVRFDYWGQGTQVTVSS | high polyreactivity
30 | QVQLEESGGGLVQAVGSLRLSCAASGFIFKRNAMGWYRQAPGKERELVAAITSRGGHTYYADSVKGRFTISRDNAKNTVYLQMNSLKAEDTAVYYCAATYASHDDYWGQGTQVTVSS | high polyreactivity
31 | QVQLVESGGGLVQAGGSLRLSCAASGSILSYNAMGWYRQAPGKERELVATITGTGGSTRYADSVKGRFTISRDNAKNTVYLQMNSLKPEDTAVYYCATAAWWYYRIYHEFGYWGQGTQVTVSS | high polyreactivity
32 | QVQLVESGGGLVQAGGSLRLSCAASGRTFWKYAMGWSRQAPGKERELVAAITDDDSTDYADSVKGRFTISRDNAKNTVYLQMTRLKPEDTAVYYCNADSSRYYRALEYWGQGTQVTVSA | low polyreactivity
33 | QVQLVESGGGLVQAGGSLRLSCAASGIFGWNAMGWYRQAPGKEREFVAGITYSGTRTYYADSVKGRFTISRDNAKNTVYLQMNSLKPEDPAVYYCAATTGHRNYRSYYWGQGTQVTVSS | high polyreactivity
34 | QVQLVESGGGLVQAGGSLRLSCAASGSIFVGNAMGWSRQAPGKERELVAAISLSGGSTYFADSVKGRFTISRDNAKNTVYLQMNSLKPDDTAVYYCAAQTKPASRVTYYWYYYWGQGTQVTVSS | low polyreactivity
35 | QVQLVESGGGLVQAGGSLRLSCAASGRIFDVNAMGWYRQAPGKEREFVAAINSRGDSTYYADSVKGRFTISRDNAKNTVYLQMNSLKPEDTAVYYCNVRGYSYSYRFWRYDYWGQGTQVTVSS | high polyreactivity
36 | QVQLVESGGGLVQAGGSLRLICAASGSTFQLYAMGWYRQAPGKERDLFAAISGIGDSTYYADSVKGRFTISRDNAKITVYLQMNSLKPEDTAVYYCAREFSDGLSGKFDYWGQRTQVTVSS | low polyreactivity
37 | QDQLVESGGGFVQAGGSLRLSCAASGFIYDNEMGWYRQAPGKERELVASITSRGGNTYYADSVKGRFTISRDNAKNTVYLQMNSLKPEETAVYYCAARYYWGSYGPYGYWGQGTQLTVSS | high polyreactivity
38 | QVQLVESGGGLVQAGGSLRLSCAASGPIVAYNAMGWYRQAPGKERELVAAISYSGGSTYYADSVKGRFTISRDNAKNTVYLQMNSLKPEDTAVYYCNAVYRYRTYRYDYWGQGTQVTVSS | high polyreactivity
39 | QVQLVESGGGLVQAGGSLRLSCAASGFILDYNAMGWYRQAPGKERELVATITGRGDRTYYADSVKGRFTISRDNAKNTVYLQMNSLKPEDTAVYYCAAAYLIYSDYGPAMDYWGQGTQVTVSS | low polyreactivity
40 | QVQLVESGGGLVQAGGSLRLSCAASGRTLGYNAMGWYSQAPGKEMDLVAAISYGGGGTYYADSVKGRCTISRDNAKNTVYLQMNSLKPEDTAVYYCAADYWYGAGLPHGTEFDYWGQGTQVTVSS | low polyreactivity
41 | QVQLVESGGGLVQAGGSLRLSCAASGLIFLYAMGWYRQAPGKERELVAAISNGGSTYYADSVKGRFTISRDNAKNTVYLQMYSLKPEDTAVYYCAVYYPGKYGYWGQGTQVTVSS | high polyreactivity
42 | QVQLVESGGGLVQAGGSLRLSCAASGSIFLIYDMGWYRQAPGKEMELVAAISNSVGSTYADSVKGRFTISRDNAKNTVYLQINSLKPEDTAVYYCNADSGPIDGRGGYWGQGTQVTVSS | low polyreactivity
43 | QVQLVESGGGLVQAGGTLRLSCAASGRTFYFYAMGWYRQAPGKERELVAAITSRVGRTYYADSVKGRFTISRDNAKNTVYLQMNSLKPEDTAVYYCAAEGVYRMGYWGQGTQVTVSS | high polyreactivity
